The supplement of paper PMC11246515
± gives the standard deviation of the averaged measurements.

Assay: total protein half-life in vivo (active degradation + dilution); higher = more stable protein
[1] = E. coli NCM3722 delta-clpP delta-lon delta-hslV, growth: N-lim chemostat, doubling time 6 h
[2] = E. coli NCM3722 delta-clpP, growth: N-lim chemostat, doubling time 6 h
[3] = E. coli NCM3722 delta-hslV, growth: N-lim chemostat, doubling time 6 h
[4] = E. coli NCM3722 delta-lon, growth: N-lim chemostat, doubling time 6 h
[5] = wild type E. coli NCM3722, growth: C-lim chemostat, doubling time 3 h
[6] = wild type E. coli NCM3722, growth: C-lim chemostat, doubling time 6 h
[7] = wild type E. coli NCM3722, growth: C-lim chemostat, doubling time 12 h
[8] = wild type E. coli NCM3722, growth: N-lim chemostat, doubling time 6 h
[9] = wild type E. coli NCM3722, growth: N-lim chemostat, doubling time 12 h
[10] = wild type E. coli NCM3722, growth: P-lim chemostat, doubling time 6 h
[11] = wild type E. coli NCM3722, growth: P-lim chemostat, doubling time 12 h
[12] = E. coli NCM3722 delta-smpB, growth: N-lim chemostat, doubling time 6 h

Sequence	total protein half-life in vivo [1]	total protein half-life in vivo [2]	total protein half-life in vivo [3]	total protein half-life in vivo [4]	total protein half-life in vivo [5]	total protein half-life in vivo [6]	total protein half-life in vivo [7]	total protein half-life in vivo [8]	total protein half-life in vivo [9]	total protein half-life in vivo [10]	total protein half-life in vivo [11]	total protein half-life in vivo [12]
MHFRAITRIVGLLVILFSGTMIIPGLVALIYRDGAGRAFTQTFFVALAIGSMLWWPNRKEKGELKSREGFLIVVLFWTVLGSVGALPFIFSESPNLTITDAFFESFSGLTTTGATTLVGLDSLPHAILFYRQMLQWFGGMGIIVLAVAILPILGVGGMQLYRAEMPGPLKDNKMRPRIAETAKTLWLIYVLLTVACALALWFAGMDAFDAIGHSFATIAIGGFSTHDASIGYFDSPTINTIIAIFLLISGCNYGLHFSLLSGRSLKVYWRDPEFRMFIGVQFTLVVICTLVLWFHNVYSSALMTINQAFFQVVSMATTAGFTTDSIARWPLFLPVLLLCSAFIGGCAGSTGGGLKVIRILLLFKQGNRELKRLVHPNAVYSIKLGNRALPERILEAVWGFFSAYALVFIVSMLAIIATGVDDFSAFASVVATLNNLGPGLGVVADNFTSMNPVAKWILIANMLFGRLEVFTLLVLFTPTFWRE [P0AFZ7]	7.11 h	6.5 h	6.15 ± 0.27 h	5.5 ± 1.2 h	3.51 ± 0.23 h	6.13 ± 0.096 h	12.8 ± 1.7 h	6.77 ± 0.85 h	12.3 ± 0.14 h	5.4 h	11.4 ± 0.63 h	
MHGNSEMQKINQTSAMPEKTDVHWSGRFSVAPMLDWTDRHCRYFLRLLSRNTLLYTEMVTTGAIIHGKGDYLAYSEEEHPVALQLGGSDPAALAQCAKLAEARGYDEINLNVGCPSDRVQNGMFGACLMGNAQLVADCVKAMRDVVSIPVTVKTRIGIDDQDSYEFLCDFINTVSGKGECEMFIIHARKAWLSGLSPKENREIPPLDYPRVYQLKRDFPHLTMSINGGIKSLEEAKAHLQHMDGVMVGREAYQNPGILAAVDREIFGSSDTDADPVAVVRAMYPYIERELSQGTYLGHITRHMLGLFQGIPGARQWRRYLSENAHKAGADINVLEHALKLVADKR	4.26 ± 0.35 h	4.49 ± 1.1 h	4.51 ± 0.81 h	4.31 ± 0.14 h	3.01 ± 0.14 h	5.432 ± 0.022 h	9.77 ± 1.5 h	4.2 ± 0.5 h	6.88 ± 0.21 h	6.57 ± 1.6 h	10.9 ± 1.2 h	4.07 ± 0.18 h
MHHATPLITTIVGGLVLAFILGMLANKLRISPLVGYLLAGVLAGPFTPGFVADTKLAPELAELGVILLMFGVGLHFSLKDLMAVKAIAIPGAIAQIAVATLLGMALSAVLGWSLMTGIVFGLCLSTASTVVLLRALEERQLIDSQRGQIAIGWLIVEDLVMVLTLVLLPAVAGMMEQGDVGFATLAVDMGITIGKVIAFIAIMMLVGRRLVPWIMARSAATGSRELFTLSVLALALGVAFGAVELFDVSFALGAFFAGMVLNESELSHRAAHDTLPLRDAFAVLFFVSVGMLFDPLILIQQPLAVLATLAIILFGKSLAAFFLVRLFGHSQRTALTIAASLAQIGEFAFILAGLGMALNLLPQAGQNLVLAGAILSIMLNPVLFALLEKYLAKTETLEEQTLEEAIEEEKQIPVDICNHALLVGYGRVGSLLGEKLLASDIPLVVIETSRTRVDELRERGVRAVLGNAANEEIMQLAHLECAKWLILTIPNGYEAGEIVASARAKNPDIEIIARAHYDDEVAYITERGANQVVMGEREIARTMLELLETPPAGEVVTG	7.0037 ± 0.0035 h	6.7 ± 0.41 h	6.3 ± 0.52 h	6.24 ± 1.1 h	> 4 h	5.87 ± 0.64 h		5.84 ± 0.9 h	12.7 ± 0.69 h	6.44 ± 0.68 h	12.6 ± 0.86 h	6.31 ± 0.61 h
MHINIAWQDVDTVLLDMDGTLLDLAFDNYFWQKLVPETWGAKNGVTPQEAMEYMRQQYHDVQHTLNWYCLDYWSEQLGLDICAMTTEMGPRAVLREDTIPFLEALKASGKQRILLTNAHPHNLAVKLEHTGLDAHLDLLLSTHTFGYPKEDQRLWHAVAEATGLKAERTLFIDDSEAILDAAAQFGIRYCLGVTNPDSGIAEKQYQRHPSLNDYRRLIPSLM	4.35 ± 0.11 h			2.37 ± 2.1 h	0.973 ± 0.063 h	0.971 h				0.56 h	0.544 h	
MHKFTKALAAIGLAAVMSQSAMAENLKLGFLVKQPEEPWFQTEWKFADKAGKDLGFEVIKIAVPDGEKTLNAIDSLAASGAKGFVICTPDPKLGSAIVAKARGYDMKVIAVDDQFVNAKGKPMDTVPLVMMAATKIGERQGQELYKEMQKRGWDVKESAVMAITANELDTARRRTTGSMDALKAAGFPEKQIYQVPTKSNDIPGAFDAANSMLVQHPEVKHWLIVGMNDSTVLGGVRATEGQGFKAADIIGIGINGVDAVSELSKAQATGFYGSLLPSPDVHGYKSSEMLYNWVAKDVEPPKFTEVTDVVLITRDNFKEELEKKGLGGK	5.11 ± 0.82 h	5.55 ± 0.61 h	6.44 ± 0.68 h	6.58 ± 0.93 h	3.11 ± 0.2 h	6.07 ± 0.47 h	12.2 ± 2.1 h	5.99 ± 0.45 h	12.3 ± 3.3 h	5.91 ± 0.24 h	13.1 ± 0.49 h	6.54 ± 1.9 h
MHLLVHPNGSKYWRLQYRYEGKQKMLALGVYPEITLADARVRRDEARKLLANGVDPGDKKKNDKVEQSKARTFKEVAIEWHGTNKKWSEDHAHRVLKSLEDNLFAALGERNIAELKTRDLLAPIKAVEMSGRLEVAARLQQRTTAIMRYAVQSGLIDYNPAQEMAGAVASCNRQHRPALELKRIPELLTKIDSYTGRPLTRWAIELTLLIFIRSSELRFARWSEIDFEASIWTIPPEREPIPGVKHSHRGSKMRTTHLVPLSTQALAILKQIKQFYGAHDLIFIGDHDSHKPMSENTVNSALRVMGYDTKVEVCGHGFRTMACSSLVESGLWSRDAVERQMSHMARNSVRAAYIHKAEHLEERRLMLQWWADFLDVNRERFISPFEYAKINNPLKQ	5.06 ± 0.41 h	4.91 h				5.13 h	13.3 h			4.82 h		2.44 h
